Assay [1] deals with CdiI^Ykris-His6, immunity protein of Yersinia kristensenii ATCC 33638 (Yersinia kristensenii ATCC 33638). The experiment in a line: BLI. On the technique in general: BLI is a label-free optical method that tracks binding on a fibre tip over time.
Assay [2] concerns the target bovine pancreatic RNase A, biotinylated (bovine) (UniProt P61823). The experiment in a line: BLI.
Chain of UniProt P61823 (P61823 27-150): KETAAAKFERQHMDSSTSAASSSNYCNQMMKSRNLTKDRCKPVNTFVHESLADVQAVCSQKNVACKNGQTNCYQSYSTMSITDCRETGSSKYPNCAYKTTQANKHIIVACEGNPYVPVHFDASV

The Kd is the constant that tells how readily two partners part at equilibrium. A low value points to higher affinity. In assay [1], “CdiA-CT^Ykris, C-terminal toxin region of CdiA from Yersinia kristensenii ATCC 33638 (domain or fragment)” came in with a Kd of 40.9 nM. With “CdiI^Ykris-His6, immunity protein of Yersinia kristensenii ATCC 33638 (natural protein)”, the Kd in assay [2] was found to be 1950 nM.

The record behind these values is PMC5435912.
